Experimental findings from patent publication US20100087368A1 are described below.

For one data set, the target named is rat Protein C (rat) (UniProt P31394). Description: cell-based or functional assay.
The next data set addresses T1, human sTM variant F376L.
T1 chain: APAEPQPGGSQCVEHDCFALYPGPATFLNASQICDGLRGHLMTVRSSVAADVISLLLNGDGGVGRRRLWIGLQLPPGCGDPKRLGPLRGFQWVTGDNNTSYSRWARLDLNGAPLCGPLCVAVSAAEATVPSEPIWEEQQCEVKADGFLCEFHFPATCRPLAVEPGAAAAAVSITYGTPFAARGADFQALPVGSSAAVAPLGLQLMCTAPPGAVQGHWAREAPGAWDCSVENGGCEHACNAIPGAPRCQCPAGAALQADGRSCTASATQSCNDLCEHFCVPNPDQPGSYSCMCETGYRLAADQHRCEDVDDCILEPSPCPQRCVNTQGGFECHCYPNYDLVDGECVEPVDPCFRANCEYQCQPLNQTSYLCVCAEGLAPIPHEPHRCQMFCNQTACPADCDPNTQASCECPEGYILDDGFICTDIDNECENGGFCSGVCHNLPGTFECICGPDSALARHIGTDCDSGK

Data set [1] addresses T2, human soluble thrombomodulin (human sTM).
T2 chain: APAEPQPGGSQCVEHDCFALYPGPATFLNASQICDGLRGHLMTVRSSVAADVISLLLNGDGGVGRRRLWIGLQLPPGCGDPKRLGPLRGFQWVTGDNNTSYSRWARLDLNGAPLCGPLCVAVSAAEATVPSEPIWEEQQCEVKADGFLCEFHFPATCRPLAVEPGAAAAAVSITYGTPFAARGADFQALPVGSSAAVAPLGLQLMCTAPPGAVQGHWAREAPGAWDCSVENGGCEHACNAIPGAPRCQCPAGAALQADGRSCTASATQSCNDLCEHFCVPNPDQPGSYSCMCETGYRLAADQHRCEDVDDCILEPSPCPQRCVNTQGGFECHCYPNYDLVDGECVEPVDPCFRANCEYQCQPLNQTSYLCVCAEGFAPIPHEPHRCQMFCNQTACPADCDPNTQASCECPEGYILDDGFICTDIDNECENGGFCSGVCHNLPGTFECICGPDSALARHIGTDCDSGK

In data set [2] the target is T3, rat soluble thrombomodulin (rat sTM).
T3 chain: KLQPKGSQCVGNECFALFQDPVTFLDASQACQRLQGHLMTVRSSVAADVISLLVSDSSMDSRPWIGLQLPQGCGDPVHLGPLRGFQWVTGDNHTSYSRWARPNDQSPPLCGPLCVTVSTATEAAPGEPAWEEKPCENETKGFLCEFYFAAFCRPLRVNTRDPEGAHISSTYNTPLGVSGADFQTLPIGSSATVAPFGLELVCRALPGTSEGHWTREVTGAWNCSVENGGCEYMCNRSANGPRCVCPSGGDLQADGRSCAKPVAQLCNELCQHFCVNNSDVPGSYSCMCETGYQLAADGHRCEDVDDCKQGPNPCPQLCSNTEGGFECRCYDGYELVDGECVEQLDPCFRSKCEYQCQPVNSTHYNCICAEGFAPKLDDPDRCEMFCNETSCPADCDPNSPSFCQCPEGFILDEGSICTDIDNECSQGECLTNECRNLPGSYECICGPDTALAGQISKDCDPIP

For the molecule “endogenous human thrombomodulin on human aortic endothelial cells (from UniProt P07204 19-575)”, the percent PC activation in the presence of human thrombin, against human thrombin with human Protein C as 100% (human aortic endothelial cells, chromogenic substrate) with rat Protein C (rat) was 12.8%.
As for “endogenous human thrombomodulin on human aortic endothelial cells (from UniProt P07204 19-575) (receptor)”, in the data set with rat Protein C (rat), the percent PC activation in the presence of rat thrombin, against human thrombin with human Protein C as 100% (human aortic endothelial cells, chromogenic substrate) turned out to be 0%.

B1: rat Protein C (protein)
chain: ANSFLEEVRAGSLERECMEEICDFEEAQEIFQNVEDTLAFWIKYFDGDQCSTPPLDHQCDSPCCGHGTCIDGLGGFSCSCDKGWEGRFCQQEMGFQDCRVKNGGCYHYCLEETRGRRCRCAPGYELADDHMHCRPTVNFPCGKLWKRTDKKRKNFKRDIDPEDEELELGPRIVNGTLTKQGDSPWQAILLDSKKKLACGGVLIHTSWVLTAAHCLESSKKLTVRLGEYDLRRRDPWELDLDIKEVLVHPNYTRSNSDNDIALLRLSQPATLSKTIVPICLPNSGLAQELSQAGQETVVTGWGYQSDKVKDGRRNRTFILTFIRIPLAARNDCMQVMNNVVSENMLCAGIIGDTRDACDGDSGGPMVVFFRGTWFLVGLVSWGEGCGHLNNYGVYTKVGSYLKWIHSYIGERDVSLKSPKL
As to B1, the figures for the “Vmax(mOD405/min) of rat Protein C activation in the presence of rat thrombin (chromogenic substrate S2366)” value (with human sTM variant F376L; in data set [1]; in data set [2]) were “TLD”, 3.1 mOD405/min and 47.1 mOD405/min, respectively.
